Results published in patent US11466066B2, “Variants of human BMP7 protein” (ELI LILLY AND COMPANY, priority 2017, dated 2022).

Key:
DLD1 C5 tumor xenografts = assay: DLD1 C5 mouse xenograft tumor model; type: in vivo; conditions: saline-treated, then irinotecan treated animals (20 mg/kg, M and Th)
Experimental: Female athymic nude mice age 6- to 7-weeks old are available commercially, including from Harlan Laboratories (Indianapolis, Ind.). The mice are allowed to acclimate for one week and fed ad libitum on a normal low fat (4.5%) diet, which may be continued for the duration of the study. Tumor cells are available for purchase from ATCC and may be cultured in cell culture media such as RPMI 1640 (Life Technologies) with L-glutamine, 25 mM HEPES supplemented with 10% FBS and 1 mM Na Pyruvate. Cells may be detached, washed with serum free medium and then resuspended at a final concentration of 50×10^6 cells/mL in serum free RPMI 1640. Tumor cells, approximately 5×106 may be injected subcutaneously in the rear flank of subject mice in a 1:1 mixture of serum free growth medium and Matrigel (Becton Dickinson, Bedford, Mass.). Tumor and body weight measurements may be performed twice weekly. Prior to treatment, mice can be randomized based on tumor size using a randomization algorithm. Treatments may be started when the average tumor volume reaches 100 mm3. […]
All test or control proteins are prepared in phosphate Buffered Saline (PBS) prior to dose. Tumor size may be determined by caliper measurements. […] Log volume data can be analyzed with two-way repeated measures ANOVA by time and treatment using SAS PROC MIXED software (SAS Institutes Inc, Cary, N.C.). […]

[1] = Thermal unfolding assay (circular dichroism); type: physicochemical; conditions: CD at 208 nm; 10 mM citrate, 300 mM NaCl, pH 7.4
Experimental: The effect of temperature on the conformational stability of human BMP7 protein variants may be followed by circular dichroism (CD) on a Jasco J-810 instrument equipped with a thermoelectric sample compartment. Briefly stated, 0.2-1.0 mg/mL pro-BMP7 may be formulated in storage buffer (10 mM citrate, 300 mM NaCl, pH 7.4) and loaded into a 0.02 cm path-length CD cuvette. The sample may be heated from 20 to 80° C. at a linear rate of 1° C./minute and the resulting CD signal at 208 nm may be recorded every 0.2° C. using a 1 second signal response time. A non-linear fit to equation 1 may be performed by the program JMP (SAS Institute Inc, Cary, N.C.) to obtain the thermal unfolding mid-point (Tm).
[formula] where, Yu and Yf are fit and represent the Y-intercept of the pre- and post-transition baselines, respectively. Mu and Mf are fit and represent the slope of the pre- and post-transition baselines, respectively. Hm and S are fit and represent enthalpy and entropy, respectively. T is the measured temperature in Kelvin units.

RAR alpha = RAR alpha protein expression, Western Blot; type: cell-based, mouse; conditions: MFc7 and 3T3-L1 cell lines; 1 μg/mL, 48 hours; Western Blot intensity
Experimental: (§1) 3T3-L1 fibroblasts and MFc7 mouse renal myofibroblasts may be maintained under routine cell culture conditions in DMEM/10% calf serum medium or OPTI-MEM/10% FBS medium, respectively. The cells may be plated in 10 cm tissue culture plates at a seeding density of 500,000 cells/plate. After 48 hours, the cells may be washed with PBS prior to the addition of either DMEM/2% dialyzed FBS or OPTI-MEM/2% dialyzed FBS medium containing 1 μg/mL human BMP7 protein or 1 μg/mL of a human BMP7 protein variant. The cells may be incubated for 48 hours and then rinsed with ice-cold PBS, and then lysed with Protein Extraction Reagent. Then lysates may be centrifuged at 14,000×g for 15 minutes. A Bradford protein assay may be performed to determine the protein concentration of each lysate. Equivalent amounts of protein (for example, 25 μg) may be resolved by SDS-PAGE and then transferred to nitrocellulose membranes for Western Blot analysis. The membranes may be probed with an anti-RAR alpha antibody and/or an anti-RAR gamma antibody.

RAR gamma = RAR gamma protein expression, Western Blot; type: cell-based, mouse; conditions: MFc7 and 3T3-L1 cell lines; 1 μg/mL, 48 hours; Western Blot intensity
Experimental: as §1

[2] = tested on: MFc7 mouse renal myofibroblasts; assay: MFc7 bioassay; type: cell-based; conditions: EC50 of wild type BMP7 protein/EC50 of the variant
Experimental: MFc7 mouse renal myofibroblasts (mouse kidney fibroblast cell line) may be maintained under routine cell culture conditions in OPTI-MEM/10% FBS medium. The cells may be plated in 10 cm tissue culture plates at a seeding density of 500,000 cells/plate. After approximately 48 hours, the cells may be washed with phosphate buffered saline (PBS) prior to the addition of OPTI-MEM/2% dialyzed fetal bovine serum (FBS) medium containing 1 μg/ml BMP7 protein or 1 μg/ml of a BMP7 protein variant and incubated for 48 hours. After treatment the cells may be rinsed with PBS and stored at −80° C. for 20 minutes. After thawing the cells at 37° C. for 30 minutes 100 μl of para-nitrophenyl phosphate (PNPP) may be added. The plate may be incubated at 37° C. for 1 hour. The absorbance at 405 nm may be read utilizing a plate reader. The average relative potency (EC50 of wild type BMP7 protein/EC50 of the BMP7 protein variant) of certain human BMP7 protein variants of the present invention may be calculated based on such readings.

[3] = tested on: female CB17SC-M SCID mice; assay: Ectopic bone formation model; type: in vivo; conditions: 3 μg/100 μl subcutaneous; CT scan on Day 13
Experimental: Ectopic bone formation (EBF) may be measured in female CB17SC-M SCID mice upon subcutaneous administration of certain human BMP7 protein variants of the present invention compared to wild type human mature BMP7.
Briefly described, the mice may be anesthetized with 3% isoflurane and are injected with 3 μg/100 μl of the human BMP7 protein variant, wild type human mature BMP7 protein or a vehicle control on the back left flank. The back right flank of each mouse may serve as a control (no injection). Vehicle (pH 4.5): 0.5% Sucrose, 2.5% Glycine, 5 mM L-Glutamic Acid, 5 mM NaCl, 0.01% polysorbate 80, and, 0.1% BSA.
EBF may be measured by a CT scan on Day 13 after injection of the human BMP7 protein variant or wild type human mature BMP7 protein.

[4] = single amino acid change (Table 4)

CCc1c2c(nc3ccc(OC(=O)N4CCC(N5CCCCC5)CC4)cc13)-c1cc3c(c(=O)n1C2)COC(=O)[C@]3(O)CC [irinotecan, reference compound]
tumor response (DLD1 C5 tumor xenografts): tumor growth

human pro-BMP7 protein variant V114M: human pro-BMP7 protein variant with V114M in the mature domain
thermal unfolding mid-point (Tm) [1]: 64.5 °C

B1: human BMP7 protein: wild type human BMP7 protein of Example 2; pro or mature form not stated (protein, UniProt P18075 293-431, looked up)
Bone morphogenetic protein 7: STGSKQRSQNRSKTPKNQEALRMANVAENSSSDQRQACKKHELYVSFRDLGWQDWIIAPEGYAAYYCEGECAFPLNSYMNATNHAIVQTLVHFINPETVPKPCCAPTQLNAISVLYFDDSSNVILKKYRNMVVRACGCH
RAR alpha protein expression (RAR alpha): stimulated
RAR gamma protein expression (RAR gamma): stimulated

B2: N110G: SEQ ID NO: 2 having the single amino acid mutation N110G (protein, listed as Homo sapiens)
chain: STGSKQRSQNRSKTPKNQEALRMANVAENSSSDQRQACKKHELYVSFRDLGWQDWIIAPEGYAAYYCEGECAFPLNSYMNATNHAIVQTLVHFINPETVPKPCCAPTQLGAISVLYFDDSSNVILKKYRNMVVRACGCH
Average Relative Potency [2, 4]: 1.7

B3: D33M: SEQ ID NO: 2 having the single amino acid mutation D33M (protein, listed as Homo sapiens)
chain: STGSKQRSQNRSKTPKNQEALRMANVAENSSSMQRQACKKHELYVSFRDLGWQDWIIAPEGYAAYYCEGECAFPLNSYMNATNHAIVQTLVHFINPETVPKPCCAPTQLNAISVLYFDDSSNVILKKYRNMVVRACGCH
Average Relative Potency [2, 4]: 3.3

B4: V114M: SEQ ID NO: 2 having the single amino acid mutation V114M (protein, listed as Homo sapiens)
chain: STGSKQRSQNRSKTPKNQEALRMANVAENSSSDQRQACKKHELYVSFRDLGWQDWIIAPEGYAAYYCEGECAFPLNSYMNATNHAIVQTLVHFINPETVPKPCCAPTQLNAISMLYFDDSSNVILKKYRNMVVRACGCH
Average Relative Potency [2, 4]: 9.4

B5: E60Q: SEQ ID NO: 2 having the single amino acid mutation E60Q (protein, listed as Homo sapiens)
chain: STGSKQRSQNRSKTPKNQEALRMANVAENSSSDQRQACKKHELYVSFRDLGWQDWIIAPQGYAAYYCEGECAFPLNSYMNATNHAIVQTLVHFINPETVPKPCCAPTQLNAISVLYFDDSSNVILKKYRNMVVRACGCH
Average Relative Potency [2, 4]: 5.5

B6: Y65G/I86L/N110G/Y128W: human mature BMP7 protein variant, SEQ ID NO: 7 (protein)
chain: STGSKQRSQNRSKTPKNQEALRMANVAENSSSDQRQACKKHELYVSFRDLGWQDWIIAPEGYAAGYCEGECAFPLNSYMNATNHALVQTLVHFINPETVPKPCCAPTQLGAISVLYFDDSSNVILKKWRNMVVRACGCH
Ectopic Bone Formation Volume [3]: 11 mm^3
Average Relative Potency ([2]; multiple amino acid changes (Table 3)): 16

B7: I94F: SEQ ID NO: 2 having the single amino acid mutation I94F (protein, listed as Homo sapiens)
chain: STGSKQRSQNRSKTPKNQEALRMANVAENSSSDQRQACKKHELYVSFRDLGWQDWIIAPEGYAAYYCEGECAFPLNSYMNATNHAIVQTLVHFFNPETVPKPCCAPTQLNAISVLYFDDSSNVILKKYRNMVVRACGCH
Average Relative Potency [2, 4]: 7.5

B8: Y65G: SEQ ID NO: 2 having the single amino acid mutation Y65G (protein, listed as Homo sapiens)
chain: STGSKQRSQNRSKTPKNQEALRMANVAENSSSDQRQACKKHELYVSFRDLGWQDWIIAPEGYAAGYCEGECAFPLNSYMNATNHAIVQTLVHFINPETVPKPCCAPTQLNAISVLYFDDSSNVILKKYRNMVVRACGCH
Average Relative Potency [2, 4]: 1.3

B9: V91M: SEQ ID NO: 2 having the single amino acid mutation V91M (protein, listed as Homo sapiens)
chain: STGSKQRSQNRSKTPKNQEALRMANVAENSSSDQRQACKKHELYVSFRDLGWQDWIIAPEGYAAYYCEGECAFPLNSYMNATNHAIVQTLMHFINPETVPKPCCAPTQLNAISVLYFDDSSNVILKKYRNMVVRACGCH
Average Relative Potency [2, 4]: 3.3

B10: A37P: SEQ ID NO: 2 having the single amino acid mutation A37P (protein, listed as Homo sapiens)
chain: STGSKQRSQNRSKTPKNQEALRMANVAENSSSDQRQPCKKHELYVSFRDLGWQDWIIAPEGYAAYYCEGECAFPLNSYMNATNHAIVQTLVHFINPETVPKPCCAPTQLNAISVLYFDDSSNVILKKYRNMVVRACGCH
Average Relative Potency [2, 4]: 7.5

B11: F93V: SEQ ID NO: 2 having the single amino acid mutation F93V (protein, listed as Homo sapiens)
chain: STGSKQRSQNRSKTPKNQEALRMANVAENSSSDQRQACKKHELYVSFRDLGWQDWIIAPEGYAAYYCEGECAFPLNSYMNATNHAIVQTLVHVINPETVPKPCCAPTQLNAISVLYFDDSSNVILKKYRNMVVRACGCH
Average Relative Potency [2, 4]: 16
